# Data: US20060257938A1, “Method of screening for drugs that block ligand binding to a lipid binding protein” (priority 2005, published 2006)
# Substitutions are numbered along the chain they refer to. Values joined by “and” are separate entries in the source; they are usually repeats but may differ in a detail not shown here. Identical values can stand only once.
# B1: 34Q, 72A (protein, listed as Rattus norvegicus)
# chain: AFDGTWKVDRNENYEKFMEKMGINVVKRKLGAHQNLKLTITQEGNKFTVKESSNFRNIDVVFELGVDFAYSAADGTELTGTWTMEGNKLVGKFKRVDNGKELIAVREISGNELIQTYTYEGVEAKRIFKKE
# modifications: PEPTIDE (1)...(131) wild-type rat intestinal fatty acid binding protein
# B2: 34W, 72A (protein, listed as Rattus norvegicus)
# chain: B1 chain with Q34W
# modifications: PEPTIDE (1)...(131) wild-type rat intestinal fatty acid binding protein
# B3: 36N, 72A (protein, listed as Rattus norvegicus)
# chain: B1 chain with Q34D, L36N
# modifications: PEPTIDE (1)...(131) wild-type rat intestinal fatty acid binding protein
# B4: 34V, 72A (protein, listed as Rattus norvegicus)
# chain: B1 chain with Q34V
# modifications: PEPTIDE (1)...(131) wild-type rat intestinal fatty acid binding protein
# B5: 36F1, 72A (protein, listed as Rattus norvegicus)
# chain: B1 chain with Q34D, L36F
# modifications: PEPTIDE (1)...(131) wild-type rat intestinal fatty acid binding protein
# B6: 36Q, 72A (protein, listed as Rattus norvegicus)
# chain: B1 chain with Q34D, L36Q
# modifications: PEPTIDE (1)...(131) wild-type rat intestinal fatty acid binding protein
# B7: 36I1, 72A (protein, listed as Rattus norvegicus)
# chain: B1 chain with Q34D, L36I
# modifications: PEPTIDE (1)...(131) wild-type rat intestinal fatty acid binding protein
# B8: 36R, 72A (protein, listed as Rattus norvegicus)
# chain: B1 chain with Q34D, L36R
# modifications: PEPTIDE (1)...(131) wild-type rat intestinal fatty acid binding protein
# B9: 36E2, 72A (protein, listed as Rattus norvegicus)
# chain: B1 chain with Q34D, L36E
# modifications: PEPTIDE (1)...(131) wild-type rat intestinal fatty acid binding protein
# B10: 34T, 72A (protein, listed as Rattus norvegicus)
# chain: B1 chain with Q34T
# modifications: PEPTIDE (1)...(131) wild-type rat intestinal fatty acid binding protein
# B11: 36M, 72A (protein, listed as Rattus norvegicus)
# chain: B1 chain with Q34D, L36M
# modifications: PEPTIDE (1)...(131) wild-type rat intestinal fatty acid binding protein
# B12: 36C3, 72A (protein, listed as Rattus norvegicus)
# chain: B1 chain with Q34D, L36C
# modifications: PEPTIDE (1)...(131) wild-type rat intestinal fatty acid binding protein
# B13: 36L, 72A wt (protein, listed as Rattus norvegicus)
# chain: B1 chain with Q34D
# modifications: PEPTIDE (1)...(131) wild-type rat intestinal fatty acid binding protein
# B14: 34S, 72A (protein, listed as Rattus norvegicus)
# chain: B1 chain with Q34S
# modifications: PEPTIDE (1)...(131) wild-type rat intestinal fatty acid binding protein
# B15: 34Y, 72A (protein, listed as Rattus norvegicus)
# chain: B1 chain with Q34Y
# modifications: PEPTIDE (1)...(131) wild-type rat intestinal fatty acid binding protein
# B16: 36G2, 72A (protein, listed as Rattus norvegicus)
# chain: B1 chain with Q34D, L36G
# modifications: PEPTIDE (1)...(131) wild-type rat intestinal fatty acid binding protein
# B17: 36D1, 72A (protein, listed as Rattus norvegicus)
# chain: B1 chain with Q34D, L36D
# modifications: PEPTIDE (1)...(131) wild-type rat intestinal fatty acid binding protein
# B18: 102N, 72A (protein, listed as Rattus norvegicus)
# chain: B1 chain with Q34D, L102N
# modifications: PEPTIDE (1)...(131) wild-type rat intestinal fatty acid binding protein
# B19: 36K, 72A (protein, listed as Rattus norvegicus)
# chain: B1 chain with Q34D, L36K
# modifications: PEPTIDE (1)...(131) wild-type rat intestinal fatty acid binding protein
# B20: 36A, 72A (protein, listed as Rattus norvegicus)
# chain: B1 chain with Q34D, L36A
# modifications: PEPTIDE (1)...(131) wild-type rat intestinal fatty acid binding protein
# B21: 36P, 72A (protein, listed as Rattus norvegicus)
# chain: B1 chain with Q34D, L36P
# modifications: PEPTIDE (1)...(131) wild-type rat intestinal fatty acid binding protein
# B22: 34R, 72A (protein, listed as Rattus norvegicus)
# chain: B1 chain with Q34R
# modifications: PEPTIDE (1)...(131) wild-type rat intestinal fatty acid binding protein
# B23: 36H1, 72A (protein, listed as Rattus norvegicus)
# chain: B1 chain with Q34D, L36H
# modifications: PEPTIDE (1)...(131) wild-type rat intestinal fatty acid binding protein
# Assay: Probe fluorescence ratio response to arachidonic acid relative to ADIFAB2
# Type: binding
# Conditions: arachidonic acid; response relative to ADIFAB2
# How it was run: (§1)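 Each fatty acid's response was expressed relative to ADIFAB2, the rI-FABP-L72A probe, as ΔR/ΔRreference. ΔR is the change in the background-corrected two-wavelength intensity ratio R=Fλ1/Fλ2 from its analyte-free baseline R0. Emission was read near about 420-480 nm for unbound and about 495-580 nm for FFA-bound probe.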
row,Molecule,DR/DR AA
1,B1,0.52
2,B2,1.31 and 1.060
3,B3,0.47
4,B4,1.22
5,B5,0.66
6,B6,1.20 and 0.837
7,B7,1.01
8,B8,1.04
9,B9,0.24
10,B10,0.61
11,B11,1.23
12,B12,−0.22
13,B13,1.25
14,B14,0.58
15,B15,1.22
16,B16,1.00
17,B17,0.20
18,B18,0.64
19,B19,0.38
20,B20,0.53
21,B21,0.32
22,B22,0.41
23,B23,0.76

# Assay: Probe fluorescence ratio response to linolenic acid relative to ADIFAB2
# Type: binding
# Conditions: response relative to ADIFAB2
# How it was run: as §1
row,Molecule,DR/DR LNA
1,B1,0.48
2,B2,1.37 and 1.130
3,B3,0.42
4,B4,1.21
5,B5,0.66
6,B6,1.28 and 0.880
7,B7,1.13
8,B8,1.17
9,B9,0.23
10,B10,0.67
11,B11,1.08
12,B12,−0.30
13,B13,1.00
14,B14,0.59
15,B15,1.22
16,B16,1.16
17,B17,0.21
18,B18,0.71
19,B19,0.42
20,B20,0.50
21,B21,0.36
22,B22,0.47
23,B23,0.86

# Assay: Probe fluorescence ratio response to linoleic acid relative to ADIFAB2
# Type: binding
# Conditions: response relative to ADIFAB2
# How it was run: as §1
row,Molecule,DR/DR LA
1,B1,0.56
2,B2,1.34 and 1.110
3,B3,0.47
4,B4,1.15
5,B5,0.67
6,B6,1.26 and 0.927
7,B7,1.11
8,B8,1.17
9,B9,0.25
10,B10,0.64
11,B11,1.10
12,B12,−0.36
13,B13,1.21
14,B14,0.65
15,B15,1.24
16,B16,1.17
17,B17,0.27
18,B18,0.67
19,B19,0.38
20,B20,0.51
21,B21,−7.45
22,B22,0.61
23,B23,0.81

# Assay: Probe fluorescence ratio response to oleic acid relative to ADIFAB2
# Type: binding
# Conditions: response relative to ADIFAB2
# How it was run: as §1
row,Molecule,DR/DR OA
1,B1,0.44
2,B2,1.38 and 1.210
3,B3,0.38
4,B4,1.19
5,B5,0.55
6,B6,1.12 and 0.792
7,B7,0.95
8,B8,1.14
9,B9,0.20
10,B10,0.53
11,B11,1.12
12,B12,−0.40
13,B13,1.25
14,B14,0.58
15,B15,1.19
16,B16,0.97
17,B17,0.20
18,B18,0.69
19,B19,0.41
20,B20,0.46
21,B21,0.14
22,B22,0.44
23,B23,0.77

# Assay: Probe fluorescence ratio response to palmitic acid relative to ADIFAB2
# Type: binding
# Conditions: response relative to ADIFAB2
# How it was run: as §1
row,Molecule,DR/DR PA
1,B1,0.36
2,B2,0.93 and 0.920
3,B3,0.39
4,B4,1.11
5,B5,0.52
6,B6,0.81 and 0.777
7,B7,0.80
8,B8,0.70
9,B9,0.19
10,B10,0.40
11,B11,0.97
12,B12,−0.21
13,B13,1.13
14,B14,0.43
15,B15,1.06
16,B16,0.55
17,B17,0.18
18,B18,−1.09
19,B19,0.16
20,B20,0.46
21,B21,0.31
22,B22,0.30
23,B23,0.40
